In US20250263504A1 (Takeda / Millennium, published 2025):

T1: Factor XIIa (FXIIa) (UniProt P00748 20-372; P00748 373-615, limits assumed)
T1 construct: the description speaks of human FXIIa; also called active Factor XII
T1 sequence (looked up) 1: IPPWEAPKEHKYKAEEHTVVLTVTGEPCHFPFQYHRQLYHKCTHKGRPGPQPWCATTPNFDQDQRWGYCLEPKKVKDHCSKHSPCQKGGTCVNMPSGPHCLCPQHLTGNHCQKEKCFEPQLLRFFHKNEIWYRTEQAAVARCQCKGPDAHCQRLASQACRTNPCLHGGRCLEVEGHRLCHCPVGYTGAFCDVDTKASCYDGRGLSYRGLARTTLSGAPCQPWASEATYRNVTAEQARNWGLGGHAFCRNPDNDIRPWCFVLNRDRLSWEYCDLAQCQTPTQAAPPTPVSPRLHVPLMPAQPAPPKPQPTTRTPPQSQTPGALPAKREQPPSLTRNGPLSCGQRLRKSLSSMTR
T1 sequence (looked up) 2: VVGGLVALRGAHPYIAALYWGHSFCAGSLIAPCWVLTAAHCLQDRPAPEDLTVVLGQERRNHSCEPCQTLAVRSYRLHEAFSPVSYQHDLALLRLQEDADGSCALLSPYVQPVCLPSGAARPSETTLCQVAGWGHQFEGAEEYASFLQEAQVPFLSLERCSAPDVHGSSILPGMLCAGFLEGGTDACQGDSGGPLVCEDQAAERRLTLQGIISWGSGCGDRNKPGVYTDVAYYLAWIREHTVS


Experiments:
[1] = molecular target: T2, plasma kallikrein (pKal) (UniProt P03952 20-390; P03952 391-638, limits assumed); assay: enzyme inhibition, corrected Ki,app
T2 construct: the description speaks of human pKal; also called active pKal
T2 sequence (P03952 20-390 limits assumed, form in doubt, chain 1 of 2): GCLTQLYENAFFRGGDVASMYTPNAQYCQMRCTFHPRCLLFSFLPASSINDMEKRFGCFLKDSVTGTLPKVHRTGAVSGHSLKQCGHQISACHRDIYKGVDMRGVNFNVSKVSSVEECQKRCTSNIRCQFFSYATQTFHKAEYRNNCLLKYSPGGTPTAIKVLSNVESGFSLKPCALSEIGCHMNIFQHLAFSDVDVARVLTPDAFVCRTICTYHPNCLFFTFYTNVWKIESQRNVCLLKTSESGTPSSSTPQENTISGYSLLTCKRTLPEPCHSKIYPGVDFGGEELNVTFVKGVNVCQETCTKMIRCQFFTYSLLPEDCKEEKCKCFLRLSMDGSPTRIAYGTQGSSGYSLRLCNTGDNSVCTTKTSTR
T2 sequence (P03952 391-638 limits assumed, form in doubt, chain 2 of 2): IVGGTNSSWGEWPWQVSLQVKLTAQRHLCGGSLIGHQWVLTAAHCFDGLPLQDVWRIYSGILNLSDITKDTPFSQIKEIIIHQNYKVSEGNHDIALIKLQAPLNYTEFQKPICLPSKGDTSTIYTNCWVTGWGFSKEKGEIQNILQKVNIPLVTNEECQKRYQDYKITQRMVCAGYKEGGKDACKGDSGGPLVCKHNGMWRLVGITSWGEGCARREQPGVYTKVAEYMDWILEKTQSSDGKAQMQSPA

[2] = molecular target: T1, Factor XIIa (FXIIa); assay: enzyme inhibition, corrected Ki,app

| Binder | Ki [1] [pM] | Ki [2] [pM] |
| --- | --- | --- |
| 620I-X0136-D06 (bispecific antibody, also called 620I-X136-D06) heavy: not shown light: DIQMTQSPSTLSASVGDRVTITCRASQSISSWLAWYQQKPGKAPKLLIYKASTLESGVPSRFSGSGSGTEFTLTISSLQPDDFATYYCQQYNTYWTFGQGTKVEIKRTVAAPSVFIFPPSDEQLKSGTASVVCLLNNFYPREAKVQWKVDNALQSGNSQESVTEQDSKDSTYSLSSTLTLSKADYEKHKVYACEVTHQGLSSPVTKSFNRGEC | 176 | 84 |
| 620I-X0136-D12 (bispecific antibody, also called 620I-X136-D12) heavy: not shown light: DIQMTQSPSTLSASVGDRVTITCRASQSISSWLAWYQQKPGKAPKLLIYKASTLESGVPSRFSGSGSGTEFTLTISSLQPDDFATYYCQQYNTYWTFGQGTKVEIKRTVAAPSVFIFPPSDEQLKSGTASVVCLLNNFYPREAKVQWKVDNALQSGNSQESVTEQDSKDSTYSLSSTLTLSKADYEKHKVYACEVTHQGLSSPVTKSFNRGEC | 179 | 63 |
| 620I-X0136-E05 (bispecific antibody, also called 620I-X136-E05) heavy: not shown light: DIQMTQSPSTLSASVGDRVTITCRASQSISSWLAWYQQKPGKAPKLLIYKASTLESGVPSRFSGSGSGTEFTLTISSLQPDDFATYYCQQYNTYWTFGQGTKVEIKRTVAAPSVFIFPPSDEQLKSGTASVVCLLNNFYPREAKVQWKVDNALQSGNSQESVTEQDSKDSTYSLSSTLTLSKADYEKHKVYACEVTHQGLSSPVTKSFNRGEC | 158 | 172 |
| 620I-X0136-E07 (bispecific antibody, also called 620I-X136-E07) heavy: not shown light: DIQMTQSPSTLSASVGDRVTITCRASQSISSWLAWYQQKPGKAPKLLIYKASTLESGVPSRFSGSGSGTEFTLTISSLQPDDFATYYCQQYNTYWTFGQGTKVEIKRTVAAPSVFIFPPSDEQLKSGTASVVCLLNNFYPREAKVQWKVDNALQSGNSQESVTEQDSKDSTYSLSSTLTLSKADYEKHKVYACEVTHQGLSSPVTKSFNRGEC | 190 | 312 |
| 620I-X0136-F07 (bispecific antibody, also called 620I-X136-F07) heavy: not shown light: DIQMTQSPSTLSASVGDRVTITCRASQSISSWLAWYQQKPGKAPKLLIYKASTLESGVPSRFSGSGSGTEFTLTISSLQPDDFATYYCQQYNTYWTFGQGTKVEIKRTVAAPSVFIFPPSDEQLKSGTASVVCLLNNFYPREAKVQWKVDNALQSGNSQESVTEQDSKDSTYSLSSTLTLSKADYEKHKVYACEVTHQGLSSPVTKSFNRGEC | 183 | 167 |
| 620I-X0136-F11 (bispecific antibody, also called 620I-X136-F11) heavy: not shown light: DIQMTQSPSTLSASVGDRVTITCRASQSISSWLAWYQQKPGKAPKLLIYKASTLESGVPSRFSGSGSGTEFTLTISSLQPDDFATYYCQQYNTYWTFGQGTKVEIKRTVAAPSVFIFPPSDEQLKSGTASVVCLLNNFYPREAKVQWKVDNALQSGNSQESVTEQDSKDSTYSLSSTLTLSKADYEKHKVYACEVTHQGLSSPVTKSFNRGEC | 201 | 235 |
| 620I-X0136-G04 (bispecific antibody, also called 620I-X136-G04) heavy: not shown light: DIQMTQSPSTLSASVGDRVTITCRASQSISSWLAWYQQKPGKAPKLLIYKASTLESGVPSRFSGSGSGTEFTLTISSLQPDDFATYYCQQYNTYWTFGQGTKVEIKRTVAAPSVFIFPPSDEQLKSGTASVVCLLNNFYPREAKVQWKVDNALQSGNSQESVTEQDSKDSTYSLSSTLTLSKADYEKHKVYACEVTHQGLSSPVTKSFNRGEC | 179 | 107 |
| 620I-X0136-G05 (bispecific antibody, also called 620I-X136-G05) heavy: not shown light: DIQMTQSPSTLSASVGDRVTITCRASQSISSWLAWYQQKPGKAPKLLIYKASTLESGVPSRFSGSGSGTEFTLTISSLQPDDFATYYCQQYNTYWTFGQGTKVEIKRTVAAPSVFIFPPSDEQLKSGTASVVCLLNNFYPREAKVQWKVDNALQSGNSQESVTEQDSKDSTYSLSSTLTLSKADYEKHKVYACEVTHQGLSSPVTKSFNRGEC | 179 | 100 |
| 620I-X0136-G08 (bispecific antibody, also called 620I-X136-G08) heavy: not shown light: DIQMTQSPSTLSASVGDRVTITCRASQSISSWLAWYQQKPGKAPKLLIYKASTLESGVPSRFSGSGSGTEFTLTISSLQPDDFATYYCQQYNTYWTFGQGTKVEIKRTVAAPSVFIFPPSDEQLKSGTASVVCLLNNFYPREAKVQWKVDNALQSGNSQESVTEQDSKDSTYSLSSTLTLSKADYEKHKVYACEVTHQGLSSPVTKSFNRGEC | 176 | 28 |
| 620I-X0136-G10 (bispecific antibody, also called 620I-X136-G10) heavy: not shown light: DIQMTQSPSTLSASVGDRVTITCRASQSISSWLAWYQQKPGKAPKLLIYKASTLESGVPSRFSGSGSGTEFTLTISSLQPDDFATYYCQQYNTYWTFGQGTKVEIKRTVAAPSVFIFPPSDEQLKSGTASVVCLLNNFYPREAKVQWKVDNALQSGNSQESVTEQDSKDSTYSLSSTLTLSKADYEKHKVYACEVTHQGLSSPVTKSFNRGEC | 171 | 28 |
| 620I-X0137-A10 (bispecific antibody, also called 620I-X137-A10) heavy: not shown light: DIQMTQSPSTLSASVGDRVTITCRASQSISSWLAWYQQKPGKAPKLLIYKASTLESGVPSRFSGSGSGTEFTLTISSLQPDDFATYYCQQYNTYWTFGQGTKVEIKRTVAAPSVFIFPPSDEQLKSGTASVVCLLNNFYPREAKVQWKVDNALQSGNSQESVTEQDSKDSTYSLSSTLTLSKADYEKHKVYACEVTHQGLSSPVTKSFNRGEC | 195 | 205 |
| 620I-X0137-B08 (bispecific antibody, also called 620I-X137-B08) heavy: not shown light: DIQMTQSPSTLSASVGDRVTITCRASQSISSWLAWYQQKPGKAPKLLIYKASTLESGVPSRFSGSGSGTEFTLTISSLQPDDFATYYCQQYNTYWTFGQGTKVEIKRTVAAPSVFIFPPSDEQLKSGTASVVCLLNNFYPREAKVQWKVDNALQSGNSQESVTEQDSKDSTYSLSSTLTLSKADYEKHKVYACEVTHQGLSSPVTKSFNRGEC | 312 | 409 |
| 620I-X0137-C08 (bispecific antibody, also called 620I-X137-C08) heavy: not shown light: DIQMTQSPSTLSASVGDRVTITCRASQSISSWLAWYQQKPGKAPKLLIYKASTLESGVPSRFSGSGSGTEFTLTISSLQPDDFATYYCQQYNTYWTFGQGTKVEIKRTVAAPSVFIFPPSDEQLKSGTASVVCLLNNFYPREAKVQWKVDNALQSGNSQESVTEQDSKDSTYSLSSTLTLSKADYEKHKVYACEVTHQGLSSPVTKSFNRGEC | 153 | 34 |
| 620I-X0142-A10 (bispecific antibody, also called 620I-X142-A10) heavy: not shown light: DIQMTQSPSTLSASVGDRVTITCRASQSISSWLAWYQQKPGKAPKLLIYKASTLESGVPSRFSGSGSGTEFTLTISSLQPDDFATYYCQQYNTYWTFGQGTKVEIKRTVAAPSVFIFPPSDEQLKSGTASVVCLLNNFYPREAKVQWKVDNALQSGNSQESVTEQDSKDSTYSLSSTLTLSKADYEKHKVYACEVTHQGLSSPVTKSFNRGEC | 175 | 389 |
| 620I-X0142-A11 (bispecific antibody, also called 620I-X142-A11) heavy: not shown light: DIQMTQSPSTLSASVGDRVTITCRASQSISSWLAWYQQKPGKAPKLLIYKASTLESGVPSRFSGSGSGTEFTLTISSLQPDDFATYYCQQYNTYWTFGQGTKVEIKRTVAAPSVFIFPPSDEQLKSGTASVVCLLNNFYPREAKVQWKVDNALQSGNSQESVTEQDSKDSTYSLSSTLTLSKADYEKHKVYACEVTHQGLSSPVTKSFNRGEC | 158 | 195 |
| 620I-X0142-E09 (bispecific antibody, also called 620I-X142-E09) heavy: not shown light: DIQMTQSPSTLSASVGDRVTITCRASQSISSWLAWYQQKPGKAPKLLIYKASTLESGVPSRFSGSGSGTEFTLTISSLQPDDFATYYCQQYNTYWTFGQGTKVEIKRTVAAPSVFIFPPSDEQLKSGTASVVCLLNNFYPREAKVQWKVDNALQSGNSQESVTEQDSKDSTYSLSSTLTLSKADYEKHKVYACEVTHQGLSSPVTKSFNRGEC | 174 | 163 |
| 620I-X0139-G02 (bispecific antibody, also called 620I-X139-G02) heavy: not shown light: DIQMTQSPSTLSASVGDRVTITCRASQSISSWLAWYQQKPGKAPKLLIYKASTLESGVPSRFSGSGSGTEFTLTISSLQPDDFATYYCQQYNTYWTFGQGTKVEIKRTVAAPSVFIFPPSDEQLKSGTASVVCLLNNFYPREAKVQWKVDNALQSGNSQESVTEQDSKDSTYSLSSTLTLSKADYEKHKVYACEVTHQGLSSPVTKSFNRGEC | 171 | 161 |
| 620I-X0138-A01 (bispecific antibody, also called 620I-X138-A01) heavy: not shown light: DIQMTQSPSTLSASVGDRVTITCRASQSISSWLAWYQQKPGKAPKLLIYKASTLESGVPSRFSGSGSGTEFTLTISSLQPDDFATYYCQQYNTYWTFGQGTKVEIKRTVAAPSVFIFPPSDEQLKSGTASVVCLLNNFYPREAKVQWKVDNALQSGNSQESVTEQDSKDSTYSLSSTLTLSKADYEKHKVYACEVTHQGLSSPVTKSFNRGEC | 154 | 465 |
| 620I-X0138-A02 (bispecific antibody, also called 620I-X138-A02) heavy: not shown light: DIQMTQSPSTLSASVGDRVTITCRASQSISSWLAWYQQKPGKAPKLLIYKASTLESGVPSRFSGSGSGTEFTLTISSLQPDDFATYYCQQYNTYWTFGQGTKVEIKRTVAAPSVFIFPPSDEQLKSGTASVVCLLNNFYPREAKVQWKVDNALQSGNSQESVTEQDSKDSTYSLSSTLTLSKADYEKHKVYACEVTHQGLSSPVTKSFNRGEC | 206 | 288 |
| 620I-X0138-A08 (bispecific antibody, also called 620I-X138-A08) heavy: not shown light: DIQMTQSPSTLSASVGDRVTITCRASQSISSWLAWYQQKPGKAPKLLIYKASTLESGVPSRFSGSGSGTEFTLTISSLQPDDFATYYCQQYNTYWTFGQGTKVEIKRTVAAPSVFIFPPSDEQLKSGTASVVCLLNNFYPREAKVQWKVDNALQSGNSQESVTEQDSKDSTYSLSSTLTLSKADYEKHKVYACEVTHQGLSSPVTKSFNRGEC | 920 | 357 |
